Source: the supplement of paper PMC12764529
± gives the half width of the 95% confidence interval.

How the values were obtained:
[1] = folding stability dG unfold (combined trypsin and chymotrypsin); higher = more stable
In short: (§1)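 Unfolding free energy was derived, per protease or combined, by relating Bayesian-fitted K50 values from sequencing counts to a sequence-predicted unfolded-state K50 and a shared folded-state K50. The underlying digests exposed cysteine-free mini-proteins under 80 residues, in a PA-tagged cDNA display construct, to trypsin and chymotrypsin at 11 threefold-diluted concentrations and to a no-protease condition. A filter kept only designs with AlphaFold2 dimer inter-PAE above 15.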

[2] = folding stability dG unfold from trypsin proteolysis; higher = more stable
In short: as §1

[3] = folding stability dG unfold from chymotrypsin proteolysis; higher = more stable
In short: as §1

Sequence | folding stability dG unfold [1] [kcal/mol] | folding stability dG unfold [2] [kcal/mol] | folding stability dG unfold [3] [kcal/mol]
SMVEIKVEKKEDGTVKITIVAPLEKAEEIAKKLAEELGKEVKIVKIEKKKVKVNGEERELVKIEIEIRLPSA [r9_431_TrROS_Hall] | 2.24 ± 0.78 | 2.86 ± 0.28 | 2.23 ± 0.31
SMVEIKVEPEKSIIKATLTLKDKTVEEIKQLAKEYFEKLGYKIKVEVKEVKTFEDSVTLKFEIKVPKGLVSA [r9_347_JUSTAS] | 2.45 ± 0.26 | 1.94 ± 0.1 | 2.27 ± 0.11
SMVELKITVKTPEELKKLEEAFKELGVEEVTIERKEDGTVTITVTFKESEEELEERVREALEELGFEVEPSA [r9_1003_TrROS_Hall] | 3.18 ± 0.22 | 3.33 ± 0.18 | 2.82 ± 0.23
SMVIEINEDGTVKVYLPEELKGLSAEEIEELIKKLFGPNVKIEKIEIFEPPPKLTEEEKEELKKLPKEEKSA [r9_1011_TrROS_Hall] | 1.41 ± 0.33 | 0.866 ± 0.17 | 1.76 ± 0.14
SMVKVEIEEENGEKTIRIVNEETGVVVEIKFPEGEEVIEVPSVEELVEELKELGENIEITKIEPLSEEELSA [r9_1102_TrROS_Hall] | 0.661 ± 0.25 | 0.425 ± 0.14 | 0.497 ± 0.084
SMVQGTVLPPNGQRLTFEFDPAGTAQERAEQVRALLEALLPPDLKIEVERVEPDRPISADEPGTVLARADSA [r9_178_TrMRF] | -0.248 ± 0.28 | -0.914 ± 0.56 | 0.0574 ± 0.19
SMVRITVYRNGKELSEEELRELAAELERETGRRITVEELARRLAARPGLTVRIEVFNEDGELVEERELRVSA [r9_1045_TrROS_Hall] | 4.71 ± 0.076 | 3.42 ± 0.058 | 5.14 ± 0.11
SMVTSETRETVTVTLPDGTVVTVTVTTHRPADGVPTATVTVTTTSADGTPTTSTHTFPAAEAPALIAAALSA [r9_189_JUSTAS] | 2.35 ± 0.086 | 2.84 ± 0.13 | 1.96 ± 0.044
SMVTVEEYEEDDEYYVKVYDPEKGVGVVFKTKDGVFKMPVTDPEALKEAIKASGIDVEIVEVRPLGPGLVSA [r9_1102_JUSTAS] | 0.492 ± 0.083 | 0.357 ± 0.036 | 0.581 ± 0.1
SMVVERDPDGVLRVYASPEEAERIVAELKAAGLDARVEAFDPETGVWVIPVRPVPPAGLEPTPENQALNRVS [r1_78_JUSTAS] | 0.962 ± 0.071 | 0.502 ± 0.029 | 1.23 ± 0.073
SMVVIEFETKKPKEQAEKAVEKAKKEIPELEEVLEIEVEEFPDFLKVKIVLKGGKITPEDLEKLKEFLEKSA [r9_195_TrMRF] | 2.63 ± 0.27 | 2.67 ± 0.27 | 2.4 ± 0.071
SMVVVKVTASSPEEAEALAKEAEEKLKEEIEKKIKELKKKGINPKELNLNIKIEIETLSYDPANPGKNTPSA [r9_961_JUSTAS] | 0.827 ± 0.13 | 0.484 ± 0.039 | 0.998 ± 0.066
SMYDIVITVPSPEDVKALEEAFKELGVEEIEVERLPEERYRIVIKTKGSVEEIVEAIRKIAEENGLEIEPSA [r9_1003_TrMRF] | 3.75 ± 0.19 | 3.36 ± 0.18 | 3.89 ± 0.19
SMYRIRLPSNKVFTIDVPPDGTVEITLPNGKKLTLKLESEEDILALAEILSKLFPDDPAEIEPIPLEYYRSA [r9_1206_TrMRF] | 1.4 ± 0.092 | 1.24 ± 0.042 | 1.53 ± 0.19
SMYRIRVKIKIKNPKTGKVIELPELEGMSLEEVLEIAKELKEKFPGAEVEVEIVEVEPLPPLTEEQLKKLSA [r9_421_TrROS_Hall] | 2.11 ± 0.073 | 1.91 ± 0.069 | 2.33 ± 0.083
SMYTADFILPDEVLKTVPLEGKSVEEALEKVKEIVKQLPPNTPLLVKISYTEVDPKTGTTRTGTITVPLKSA [r9_245_JUSTAS] | 2.2 ± 0.19 | 2.06 ± 0.065 | 2.39 ± 0.044
SMYYYGKFTFTNPTGGPTIGDVYIITKSKEEAEALAKEEASKKNVKVEIEIKEIPESEYENPEKVKELLSSA [r9_864_JUSTAS] | 0.788 ± 0.37 | 0.285 ± 0.2 | 1.02 ± 0.19
SNIKNIKRVEIYYNPENGWMPKIKVEYPGGEREFMFPPDQAEELLNWLQQKGLPMKITDVEYHPMPPDQMSA [r9_607_TrROS] | 1.27 ± 0.18 | 0.911 ± 0.086 | 1.49 ± 0.048
SNPENIDKITFTFRWPDGNPMEIEIDPDGTVEYEYPNGWEIEITIDPDDGKLTIEMTFPNGRPQEQKIPISA [r9_99_TrROS] | 2.94 ± 0.38 | 1.86 ± 0.12 | 2.85 ± 0.097
SNYINEPIYVPPSVDPEEVKKKVEERVEEIKKKLGLPPNISVSVTPVALPEGSVTYRVTVTVDGETYNSSSA [r9_776_JUSTAS] | 0.683 ± 0.15 | 0.77 ± 0.1 | 0.488 ± 0.17
SPAAELARRLFEELGLEAELVSVDPERRRVTFRVRHPDRAPLLLEVVYDPERPVFAIALNPETGRAVVPVSA [r9_1119_TrMRF] | 2.73 ± 0.1 | 1.8 ± 0.039 | 3.11 ± 0.036

Sequence | folding stability dG unfold [1] [kcal/mol] | folding stability dG unfold [2] [kcal/mol] | folding stability dG unfold [3] [kcal/mol]
SPDIEIEPMPNGSYMIEVPVPPDAESIEVPFPGNGRPVTIHRDPDKIHIFFNNPEQIEEIAEAIADGKPISA [r9_515_TrROS] | 0.15 ± 0.15 | 0.0692 ± 0.047 | 0.2 ± 0.21
SPESIEVQISKSSSTSPSGGSEEIYTVTVTYPATGKTLTKNFTATLNPDGTTNPNGSPEELAAKLAAELLAS [r1_77_JUSTAS] | 2 ± 0.1 | 1.37 ± 0.079 | 2.23 ± 0.026
SPKIHIFIKGSIEEAVDFIRKFFPGLPIHVFDDPEQAEERAKNGDIVIAIGDEEYANRYAKKYNVPVIYISA [r9_380_TrROS] | 3.12 ± 0.053 | 2.52 ± 0.062 | 3.338 ± 0.018
SPKITIDVETNKNGRGYIRFKFNGREREIRIPSNMTPEGAKEKARDIANTLQKRYQENGRPLKIEEIEIYSA [r9_751_TrROS] | 1.36 ± 0.17 | 1.49 ± 0.089 | 1.47 ± 0.13
SPNWKIVEITEMERTDGRVTIKIKIKVPDGRIYIFMPNGKIIEEVPLGDDVELTITFPPNNWPIYIFVLDSA [r9_917_TrROS] | 4.48 ± 0.18 | 3.47 ± 0.093 | 4.69 ± 0.19
SPPETETYPIPNPEDGKPLMDITIERNPENGNWKVEIYWPGGKKKEVEFPPNETIPIDDLPPGFWVTITRSA [r9_1150_TrROS] | 1.21 ± 0.16 | 0.532 ± 0.12 | 1.56 ± 0.069
SPPGWKVIPITLKFRAPIKSVEEAKSQVREIAREIANRHGFPIQVNVTVEYDPEDGWVKVEVPISIWVPKSA [r9_741_TrROS] | 2.97 ± 0.09 | 2.75 ± 0.081 | 3.234 ± 0.022
SPSADAKVRVEPLPGPGYLATLEDGSLVLVHPDGTVIEVTETKVRIRVFTPDKPLLELEIEIPPPAPDEPSA [r9_901_TrMRF] | 1.18 ± 0.16 | 0.803 ± 0.095 | 1.26 ± 0.066
SPVTVTITLPNGETITLTFPAGMTAEELKAAVLAELKRLLPPGAKIEVVDIEVTEVVAPGETVTVTVRLTSA [r9_178_TrROS_Hall] | 4.16 ± 0.11 | 3.36 ± 0.13 | 4.61 ± 0.15
SPYFMFPIDDIKVEKERDPDDGKKTYEMRVEGPNGNPFRIEFNPKDGMIHIEFPPGMKLRPGDTFELTIRSA [r9_509_TrROS] | 1.85 ± 0.21 | 2.09 ± 0.088 | 1.59 ± 0.2
SQTIRLELKNPDGRKIRIEIPVQRNPGNGYYYVSVKIEYYDPNGKPKERPITAPFNSPEDAEDQAREALRSA [r9_337_TrROS] | 1.69 ± 0.28 | 1.63 ± 0.12 | 2.06 ± 0.16
SRIKITVKPKPDGNFYIKIWFPNNGKPFIFPIKNPDAMDEARDDPGQTIEVPEDYLRSLFPDNFTDVEIVSA [r9_390_TrROS] | 1.25 ± 0.064 | 1.31 ± 0.015 | 1.16 ± 0.12
SSATVTFTVELPDDSVIVSVRIDAEEYDPGPPWVRVTIEVEIYDKNGELLATLRFEFLLPREVLEELRKSSA [r9_234_TrMRF] | 5.77 ± 0.66 | 4.23 ± 0.14 | 5.74 ± 0.3
SSDIKIEIDIERNDDGYLTFTIEIRHPDPQQLVDAAKEIILELFPPGVNIDVEPHPDGWVKAPIMFPLPKSA [r9_646_TrROS] | 1.35 ± 0.25 | 0.735 ± 0.13 | 1.63 ± 0.086
SSEKEVEVTIKIPLYYERPDGTIEEYDIEIKVKVKIDNGGFIAENLEEAIREVLEKLNIPEGHPDAPYFNKS [r1_175_TrMRF] | 1.02 ± 0.33 | 1.72 ± 0.19 | 0.155 ± 0.48
SSITETKEFLLESEEEVEAIAEELKKPGVEVEVEVKEVERVDKKTGKKKKALKATITVKIPLPPPEKGKLSA [r9_962_JUSTAS] | 0.794 ± 0.15 | 0.79 ± 0.054 | 0.742 ± 0.069
SSLGPGELEVTELETTEEELPDGTTLKRTLSREIVPDPAGAGRVVLTETLSTVPPDGSETVTTLSVTVLASA [r9_838_JUSTAS] | -0.138 ± 0.16 | -0.078 ± 0.13 | -0.0934 ± 0.17
SSMPLEEIVERVAEELGIPEEELERIESVDPGVVDPSPEGPTRVELRITLRDPHSDTTTEYRVEVEDPGGSA [r9_230_JUSTAS] | -0.501 ± 0.29 | -0.784 ± 0.3 | -0.503 ± 0.46
SSMSIEIKEVEEDPVGSEAKPRVVREKVTLEGTEVELTVTVTEAPSGETTVTTTLTFPGSGKTFSFTFDTSA [r9_241_JUSTAS] | 2.62 ± 0.058 | 1.9 ± 0.052 | 3.05 ± 0.044
SSMSMKTITIDATFTSEEEAKKYAEEIKKKIPPENIKNISISSTPELVTGDGTYKGEKIKVTITIEIVKKSA [r9_605_JUSTAS] | 1.71 ± 0.26 | 1.64 ± 0.17 | 1.74 ± 0.2
SSPALDEKYTAKVDAKVTSPEGKPLATFTIDVLTEEEAKKKIEEFVKELAEKLGRPDLPVTISNITIERVSA [r9_376_JUSTAS] | 0.679 ± 0.25 | 0.519 ± 0.077 | 0.921 ± 0.16
